# Results from article PMC8225996 (Frontiers in Cardiovascular Medicine, 2021).
# B1: Rab5a (natural protein, UniProt Q9CQD1 1-215, looked up)
# chain: MANRGATRPNGPNTGNKICQFKLVLLGESAVGKSSLVLRFVKGQFHEFQESTIGAAFLTQTVCLDDTTVKFEIWDTAGQERYHSLAPMYYRGAQAAIVVYDITNEESFARAKNWVKELQRQASPNIVIALSGNKADLANKRAVDFQEAQSYADDNSLLFMETSAKTSMNVNEIFMAIAKKLPKNEPQNPGANSARGRGVDLTEPAQPARSQCCSN
# notes: Rab5a, Rab GTPase of the endolysosomal trafficking pathway; endogenous in mouse brain microvascular endothelial cells; source: endogenous, mouse primary brain microvascular endothelial cells (C57BL/6 control; db/db diabetic), in lysate
# Biological target: T1, Angiotensin converting enzyme 2 (mouse (endogenous in primary brain …, UniProt Q8R0I0 18-805))
# T1 construct: Angiotensin converting enzyme 2 (ACE2), type I membrane glycoprotein; endogenous in mouse brain microvascular endothelial cells; also called ACE2; ACE2 receptor; source: endogenous, mouse primary brain microvascular endothelial cells (C57BL/6 control; db/db diabetic), in lysate
# Test: co-IP; ACE2 antibody (2 ug) with 150 ug lysate of control endothelial cells treated with Spike; Catch and Release spin columns, 18 h at 4 C; blots probed for Rab5a
# Conditions: partners not purified
# T1 sequence (Q8R0I0 18-805): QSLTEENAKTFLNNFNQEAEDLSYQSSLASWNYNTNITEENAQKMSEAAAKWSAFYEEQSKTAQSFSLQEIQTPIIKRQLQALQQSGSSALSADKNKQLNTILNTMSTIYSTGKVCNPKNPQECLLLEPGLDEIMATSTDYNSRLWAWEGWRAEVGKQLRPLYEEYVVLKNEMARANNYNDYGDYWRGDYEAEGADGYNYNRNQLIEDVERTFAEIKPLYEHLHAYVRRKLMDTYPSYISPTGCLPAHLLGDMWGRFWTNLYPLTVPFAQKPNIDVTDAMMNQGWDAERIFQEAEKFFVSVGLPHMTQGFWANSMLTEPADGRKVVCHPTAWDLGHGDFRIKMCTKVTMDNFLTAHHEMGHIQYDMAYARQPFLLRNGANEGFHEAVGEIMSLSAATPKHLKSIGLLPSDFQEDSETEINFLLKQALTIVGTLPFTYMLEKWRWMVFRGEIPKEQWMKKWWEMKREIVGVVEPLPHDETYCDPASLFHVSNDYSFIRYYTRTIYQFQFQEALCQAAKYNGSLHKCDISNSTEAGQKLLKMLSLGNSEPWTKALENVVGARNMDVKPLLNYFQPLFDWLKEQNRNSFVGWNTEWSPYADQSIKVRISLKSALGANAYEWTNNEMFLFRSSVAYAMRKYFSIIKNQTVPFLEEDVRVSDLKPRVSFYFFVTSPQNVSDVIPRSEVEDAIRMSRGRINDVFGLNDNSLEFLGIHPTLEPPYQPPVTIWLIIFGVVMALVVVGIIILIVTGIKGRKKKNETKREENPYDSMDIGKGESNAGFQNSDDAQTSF
binder,measurement,value
B1,"fold change of association with ACE2, Spike-treated against untreated cells",2 fold
